Target: cyno ST2L (cyno)
Assay: affinity table, cyno ST2L; method not stated

koff: 0.00065 s⁻¹
B1: STLM107 (antibody, from another filing, V domains shown)
VH: EVQLLESGGGLVQPGGSLRLSCAASGFTFSDYAMFWVRQAPGKGLEWVSAIEGEGGETNYADSVKGRFTISRDNSKNTLYLQMNSLRAEDTAVYYCARDPWSTEGSFFVLDYWGQGTLVTVSS
VL: EIVLTQSPATLSLSPGERATLSCRASQSVDDDLAWYQQKPGQAPRLLIYDASNRATGIPARFSGSGSGTDFTLTISSLEPEDFAVYYCQQYIGAPITFGQGTKVEIK
